# Measured values as given in the supplement of paper PMC12458215.
# ± gives the uncertainty stated by the source.
# Tested on: HEK293T
# Test: plasma membrane surface immunostaining intensity (anti-HA, deep receptor scanning) (arbitrary fluorescence units); higher = higher plasma membrane expression
# Conditions: GPCR class: A
row,Sequence,plasma membrane surface immunostaining intensity
1,MLLETQDALYVALELVIAALSVAGNVLVCAAVGTANTLQTPTNYFLVSLAAADVAVGLFAIPFAITISLGFCTDFYGCLFLACFVLVLTQSSIFSLLAVAVDRYLAICVPLRYKSLVTGTRARGVIAVLWVLAFGIGLTPFLGWNSKDSATNNCTEPWDGTTNESCCLVKCLFENVVPMSYMVYFNFFGCVLPPLLIMLVIYIKIFLVACRQLQRTELMDHSRTTLQREIHAAKSLAMIVGIFALCWLPVHAVNCVTLFQPAQGKNKPKWAMNMAILLSHANSVVNPIVYAYRNRDFRYTFHKIISRYLLCQADVKSGNGQAGVQPALGVGL [ADORA2B],1240 ± 140
2,MLPDWKSSLILMAYIIIFLTGLPANLLALRAFVGRIRQPQPAPVHILLLSLTLADLLLLLLLPFKIIEAASNFRWYLPKVVCALTSFGFYSSIYCSTWLLAGISIERYLGVAFPVQYKLSRRPLYGVIAALVAWVMSFGHCTIVIIVQYLNTTEQVRSGNEITCYENFTDNQLDVVLPVRLELCLVLFFIPMAVTIFCYWRFVWIMLSQPLVGAQRRRRAVGLAVVTLLNFLVCFGPYNVSHLVGYHQRKSPWWRSIAVVFSSLNASLDPLLFYFSSSVVRRAFGRGLQVLRNQGSSLLGRRGKDTAEGTNEDRGVGQGEGMPSSDFTTE [FFAR2],3600 ± 470
3,MLSTSRSRFIRNTNESGEEVTTFFDYDYGAPCHKFDVKQIGAQLLPPLYSLVFIFGFVGNMLVVLILINCKKLKCLTDIYLLNLAISDLLFLITLPLWAHSAANEWVFGNAMCKLFTGLYHIGYFGGIFFIILLTIDRYLAIVHAVFALKARTVTFGVVTSVITWLVAVFASVPGIIFTKCQKEDSVYVCGPYFPRGWNNFHTIMRNILGLVLPLLIMVICYSGILKTLLRCRNEKKRHRAVRVIFTIMIVYFLFWTPYNIVILLNTFQEFFGLSNCESTSQLDQATQVTETLGMTHCCINPIIYAFVGEKFRSLFHIALGCRIAPLQKPVCGGPGVRPGKNVKVTTQGLLDGRGKGKSIGRAPEASLQDKEGA [CCR2],137 ± 20

# Same assay, conditions: GPCR class: A (Olfactory)
row,Sequence,plasma membrane surface immunostaining intensity
1,MLGPAYNHTMETPASFLLVGIPGLQSSHLWLAISLSAMYITALLGNTLIVTAIWMDSTRHEPMYCFLCVLAAVDIVMASSVVPKMVSIFCSGDSSISFSACFTQMFFVHLATAVETGLLLTMAFDRYVAICKPLHYKRILTPQVMLGMSMAVTIRAVTFMTPLSWMMNHLPFCGSNVVVHSYCKHIALARLACADPVPSSLYSLIGSSLMVGSDVAFIAASYILILRAVFDLSSKTAQLKALSTCGSHVGVMALYYLPGMASIYAAWLGQDIVPLHTQVLLADLYVIIPATLNPIIYGMRTKQLLEGIWSYLMHFLFDHSNLGS [OR52I1],157 ± 16
2,MLMKKNASFEDFFLLLGFSNWPHLEVVLFVVILIFYLITLIGNLFIIILSYLDSHLHTPMYFFLSNLSFLDLCYTTSSIPQLLVNLWGPEKTISYAGCTVQLYFVLALGTAECVLLVVMSYDRYAAVCRPLHYTVLMHPRFCRLLAAASWVSGFTTSALHSSFTFWIPLCRHRLVDHFFCEVPALLRLSCVDTQANELTLMVMSSIFVLIPLILILTSYGAIARAVLSMQSTTGLQKVLRTCGAHLMVVSLFFIPVMCMYLQPPSENSQDQGKFIALFYTVVTPSLNPLIYTFRNKDVRGAVKRLMGWEWGM [OR2J1],133 ± 36
3,MLMNYSSATEFYLLGFPGSEELHHILFAIFFFFYLVTLMGNTVIIMIVCVDKRLQSPMYFFLGHLSALEILVTTIIVPVMLWGLLLPGMQTIYLSACVVQLFLYLAVGTTEFALLGAMAVDRYVAVCNPLRYNIIMNRHTCNFVVLVSWVFGFLFQIWPVYVMFQLTYCKSNVVNNFFCDRGQLLKLSCNNTLFTEFILFLMAVFVLFGSLIPTIVSNAYIISTILKIPSSSGRRKSFSTCASHFTCVVIGYGSCLFLYVKPKQTQAADYNWVVSLMVSVVTPFLNPFIFTLRNDKVIEALRDGVKRCCQLFRN [OR9A4],185 ± 75
4,MLNFTDVTEFILLGLTSRREWQVLFFIIFLVVYIITMVGNIGMMVLIKVSPQLNNPMYFFLSHLSFVDVWFSSNVTPKMLENLLSDKKTITYAGCLVQCFFFIALVHVEIFILAAMAFDRYMAIGNPLLYGSKMSRVVCIRLITFPYIYGFLTSLAATLWTYGLYFCGKIEINHFYCADPPLIKMACAGTFVKEYTMIILAGINFTYSLTVIIISYLFILIAILRMRSAEGRQKAFSTCGSHLTAVIIFYGTLIFMYLRRPTEESVEQGKMVAVFYTTVIPMLNPMIYSLRNKDVKKAMMKVISRSC [OR5M3],120 ± 24
5,MLNTTSVTEFLLLGVTDIQELQPFLFVVFLTIYFISVTGNGAVLMIVISDPRLHSLMYFFLGNLSYLDICYSTVTLPKMLQNFLSTHKAISFLGCISQLHFFHSLGSTESMLFAVMAFDLSVAICKPLRYTVIMNPQLCTQMAITIWVIGFFHALLHSVMTSRLNFCGSNRIHHFLCDIKPLLKLACGNTELNQWLLSTVTGTIAMGPFFLTLLSYFYIITYLFFKTRSCSMLCKALSTCASHFMVVILFYAPVLFTYIHPALESFMDQDRIVAIMYTVVTPVLNPLIYTLRNKEVKGALGRVIRRL [OR12D2],126 ± 22
6,MLRNGSIVTEFILVGFQQSSTSTRALLFALFLALYSLTMAMNGLIIFITSWTDPKLNSPMYFFLGHLSLLDVCFITTTIPQMLIHLVVRDHIVSFVCCMTQMYFVFCVGVAECILLAFMAYDRYVAICYPLNYVPIISQKVCVRLVGTAWFFGLINGIFLEYISFREPFRRDNHIESFFCEAPIVIGLSCGDPQFSLWAIFADAIVVILSPMVLTVTSYVHILATILSKASSSGRGKTFSTCASHLTVVIFLYTSAMFSYMNPHSTHGPDKDKPFSLLYTIITPMCNPIIYSFRNKEIKEAMVRALGRTRLAQPQSV [OR10AD1],326 ± 140

# Same assay, conditions: GPCR class: Taste
row,Sequence,plasma membrane surface immunostaining intensity
1,MLGPAVLGLSLWALLHPGTGAPLCLSQQLRMKGDYVLGGLFPLGEAEEAGLRSRTRPSSPVCTRFSSNGLLWALAMKMAVEEINNKSDLLPGLRLGYDLFDTCSEPVVAMKPSLMFLAKAGSRDIAAYCNYTQYQPRVLAVIGPHSSELAMVTGKFFSFFLMPQVSYGASMELLSARETFPSFFRTVPSDRVQLTAAAELLQEFGWNWVAALGSDDEYGRQGLSIFSALAAARGICIAHEGLVPLPRADDSRLGKVQDVLHQVNQSSVQVVLLFASVHAAHALFNYSISSRLSPKVWVASEAWLTSDLVMGLPGMAQMGTVLGFLQRGAQLHEFPQYVKTHLALATDPAFCSALGEREQGLEEDVVGQRCPQCDCITLQNVSAGLNHHQTFSVYAAVYSVAQALHNTLQCNASGCPAQDPVKPWQLLENMYNLTFHVGGLPLRFDSSGNVDMEYDLKLWVWQGSVPRLHDVGRFNGSLRTERLKIRWHTSDNQKPVSRCSRQCQEGQVRRVKGFHSCCYDCVDCEAGSYRQNPDDIACTFCGQDEWSPERSTRCFRRRSRFLAWGEPAVLLLLLLLSLALGLVLAALGLFVHHRDSPLVQASGGPLACFGLVCLGLVCLSVLLFPGQPSPARCLAQQPLSHLPLTGCLSTLFLQAAEIFVESELPLSWADRLSGCLRGPWAWLVVLLAMLVEVALCTWYLVAFPPEVVTDWHMLPTEALVHCRTRSWVSFGLAHATNATLAFLCFLGTFLVRSQPGCYNRARGLTFAMLAYFITWVSFVPLLANVQVVLRPAVQMGALLLCVLGILAAFHLPRCYLLMRQPGLNTPEFFLGGGPGDAQGQNDGNTGNQGKHE [TAS1R3],122 ± 9.1
2,MLLCTARLVGLQLLISCCWAFACHSTESSPDFTLPGDYLLAGLFPLHSGCLQVRHRPEVTLCDRSCSFNEHGYHLFQAMRLGVEEINNSTALLPNITLGYQLYDVCSDSANVYATLRVLSLPGQHHIELQGDLLHYSPTVLAVIGPDSTNRAATTAALLSPFLVPMISYAASSETLSVKRQYPSFLRTIPNDKYQVETMVLLLQKFGWTWISLVGSSDDYGQLGVQALENQATGQGICIAFKDIMPFSAQVGDERMQCLMRHLAQAGATVVVVFSSRQLARVFFESVVLTNLTGKVWVASEAWALSRHITGVPGIQRIGMVLGVAIQKRAVPGLKAFEEAYARADKKAPRPCHKGSWCSSNQLCRECQAFMAHTMPKLKAFSMSSAYNAYRAVYAVAHGLHQLLGCASGACSRGRVYPWQLLEQIHKVHFLLHKDTVAFNDNRDPLSSYNIIAWDWNGPKWTFTVLGSSTWSPVQLNINETKIQWHGKDNQVPKSVCSSDCLEGHQRVVTGFHHCCFECVPCGAGTFLNKSDLYRCQPCGKEEWAPEGSQTCFPRTVVFLALREHTSWVLLAANTLLLLLLLGTAGLFAWHLDTPVVRSAGGRLCFLMLGSLAAGSGSLYGFFGEPTRPACLLRQALFALGFTIFLSCLTVRSFQLIIIFKFSTKVPTFYHAWVQNHGAGLFVMISSAAQLLICLTWLVVWTPLPAREYQRFPHLVMLECTETNSLGFILAFLYNGLLSISAFACSYLGKDLPENYNEAKCVTFSLLFNFVSWIAFFTTASVYDGKYLPAANMMAGLSSLSSGFGGYFLPKCYVILCRPDLNSTEHFQASIQDYTRRCGST [TAS1R1],124 ± 5.5
3,MLRLFYFSAIIASVILNFVGIIMNLFITVVNCKTWVKSHRISSSDRILFSLGITRFLMLGLFLVNTIYFVSSNTERSVYLSAFFVLCFMFLDSSSVWFVTLLNILYCVKITNFQHSVFLLLKRNISPKIPRLLLACVLISAFTTCLYITLSQASPFPELVTTRNNTSFNISEGILSLVVSLVLSSSLQFIINVTSASLLIHSLRRHIQKMQKNATGFWNPQTEAHVGAMKLMVYFLILYIPYSVATLVQYLPFYAGMDMGTKSICLIFATLYSPGHSVLIIITHPKLKTTAKKILCFKK [TAS2R4],139 ± 19
4,MLSAGLGLLMLVAVVEFLIGLIGNGSLVVWSFREWIRKFNWSSYNLIILGLAGCRFLLQWLIILDLSLFPLFQSSRWLRYLSIFWVLVSQASLWFATFLSVFYCKKITTFDRPAYLWLKQRAYNLSLWCLLGYFIINLLLTVQIGLTFYHPPQGNSSIRYPFESWQYLYAFQLNSGSYLPLVVFLVSSGMLIVSLYTHHKKMKVHSAGRRDVRAKAHITALKSLGCFLLLHLVYIMASPFSITSKTYPPDLTSVFIWETLMAAYPSLHSLILIMGIPRVKQTCQKILWKTVCARRCWGP [TAS2R5],123 ± 18
5,MLTLTRIRTVSYEVRSTFLFISVLEFAVGFLTNAFVFLVNFWDVVKRQALSNSDCVLLCLSISRLFLHGLLFLSAIQLTHFQKLSEPLNHSYQAIIMLWMIANQANLWLAACLSLLYCSKLIRFSHTFLICLASWVSRKISQMLLGIILCSCICTVLCVWCFFSRPHFTVTTVLFMNNNTRLNWQIKDLNLFYSFLFCYLWSVPPFLLFLVSSGMLTVSLGRHMRTMKVYTRNSRDPSLEAHIKALKSLVSFFCFFVISSCAAFISVPLLILWRDKIGVMVCVGIMAACPSGHAAILISGNAKLRRAVMTILLWAQSSLKVRADHKADSRTLC [TAS2R38],123 ± 18
6,MMCFLLIISSILVVFAFVLGNVANGFIALVNVIDWVNTRKISSAEQILTALVVSRIGLLWVMLFLWYATVFNSALYGLEVRIVASNAWAVTNHFSMWLAASLSIFCLLKIANFSNLISLHLKKRIKSVVLVILLGPLVFLICNLAVITMDERVWTKEYEGNVTWKIKLRNAIHLSSLTVTTLANLIPFTLSLICFLLLICSLCKHLKKMRLHSKGSQDPSTKVHIKALQTVTSFLMLFAIYFLCIITSTWNLRTQQSKLVLLLCQTVAIMYPSFHSFILIMGSRKLKQTFLSVLWQMTR [TAS2R19],370 ± 230
7,MMGLTEGVFLILSGTQFTLGILVNCFIELVNGSSWFKTKRMSLSDFIITTLALLRIILLCIILTDSFLIEFSPNTHDSGIIMQIIDVSWTFTNHLSIWLATCLGVLYCLKIASFSHPTFLWLKWRVSRVMVWMLLGALLLSCGSTASLINEFKLYSVFRGIEATRNVTEHFRKKRSEYYLIHVLGTLWYLPPLIVSLASYSLLIFSLGRHTRQMLQNGTSSRDPTTEAHKRAIRIILSFFFLFLLYFLAFLIASFGNFLPKTKMAKMIGEVMTMFYPAGHSFILILGNSKLKQTFVVMLRCESGHLKPGSKGPIFS [TAS2R3],135 ± 22
